Molecular target: T1, GZF1-Flag (UniProt Q4VBD9 1-706)
T1 sequence: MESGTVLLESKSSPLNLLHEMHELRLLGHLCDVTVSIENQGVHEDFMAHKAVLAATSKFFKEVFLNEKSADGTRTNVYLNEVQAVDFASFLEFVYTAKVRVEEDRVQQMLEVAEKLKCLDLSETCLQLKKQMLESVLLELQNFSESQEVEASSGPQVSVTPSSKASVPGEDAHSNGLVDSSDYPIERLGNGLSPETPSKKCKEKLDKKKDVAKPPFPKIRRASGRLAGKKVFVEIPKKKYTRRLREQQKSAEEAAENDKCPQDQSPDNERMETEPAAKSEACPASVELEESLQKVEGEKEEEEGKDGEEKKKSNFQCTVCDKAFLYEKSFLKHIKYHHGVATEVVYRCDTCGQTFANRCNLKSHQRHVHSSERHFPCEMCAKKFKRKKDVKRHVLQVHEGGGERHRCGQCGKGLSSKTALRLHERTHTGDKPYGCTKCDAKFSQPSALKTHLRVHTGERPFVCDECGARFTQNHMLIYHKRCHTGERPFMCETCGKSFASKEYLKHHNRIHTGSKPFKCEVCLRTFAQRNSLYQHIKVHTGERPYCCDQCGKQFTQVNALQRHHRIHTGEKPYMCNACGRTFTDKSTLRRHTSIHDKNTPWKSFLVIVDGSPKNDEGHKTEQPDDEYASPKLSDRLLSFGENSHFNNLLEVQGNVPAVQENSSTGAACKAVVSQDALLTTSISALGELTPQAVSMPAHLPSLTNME
Assay: PBM

GAGGCCATTACGGTAATGCCTCCTGGCATTACCGTAATGGCCTCACACTC (structured_DNA) [Gzf1_bs_unmethylated]
binding result: binds
